Data reported in patent US20170037111A1, “Novel peptides and combination of peptides for use in immunotherapy against ovarian cancer and other cancers” (immatics biotechnologies GmbH, priority 2015, published 2017).

molecular target: HLA-A*02:01 (Homo sapiens, UniProt P04439, D140Y/D185E/D98H/E176V/E277Q/G131W/G231S/I119V/I121R/I166T/I218V/L300P/L318F/N151K/N90K/P208A/P217A/Q86G/Q94H/R138H/R169H/T345S); assay: MHC binding assay (UV-ligand exchange, β2m ELISA, peptide exchange yield); details: MHC class I binding score; binding to HLA-A*02:01 ranged by peptide exchange yield (UV-ligand exchange, β2m ELISA)
Source text: Candidate peptides for T cell based therapies according to the present invention were further tested for their MHC binding capacity (affinity). The individual peptide-MHC complexes were produced by UV-ligand exchange, where a UV-sensitive peptide is cleaved upon UV-irradiation, and exchanged with the peptide of interest as analyzed. Only peptide candidates that can effectively bind and stabilize the peptide-receptive MHC molecules prevent dissociation of the MHC complexes. To determine the yield of the exchange reaction, an ELISA was performed based on the detection of the light chain (β2m) of stabilized MHC complexes. The assay was performed as generally described in Rodenko et al. (Rodenko et al., 2006).
96 well MAXISorp plates (NUNC) were coated over night with 2 ug/ml streptavidin in PBS at room temperature, washed 4× and blocked for 1h at 37° C. in 2% BSA containing blocking buffer. […] Peptide-MHC monomers of the UV-exchange reaction were diluted 100 fold in blocking buffer. Samples were incubated for 1h at 37° C., washed four times, incubated with 2 ug/ml HRP conjugated anti-β2m for 1h at 37° C., washed again and detected with TMB solution that is stopped with […]. Absorption was measured at 450 nm. Candidate peptides that show a high exchange yield (preferably higher than 50%, most preferred higher than 75%) are generally preferred for a generation and production of antibodies or fragments thereof, and/or T cell receptors or fragments thereof, as they show sufficient avidity to the MHC molecules and prevent dissociation of the MHC complexes.

Substance	Peptide exchange
147 (SLLEAVSFL; listed as Homo sapiens) [compound 147]	″+++″ (≧50% = +++)
220 (LLQKFVPEI; listed as Homo sapiens) [compound 220]	″++″ (≧20% = ++)
43 (VLSSLEINI; listed as Homo sapiens) [compound 43]	″++″ (≧20% = ++)
232 (ALLEAQDVELYL; listed as Homo sapiens) [compound 232]	″++″ (≧20% = ++)
148 (ALNPEIVSV; listed as Homo sapiens) [compound 148]	″++″ (≧20% = ++)
130 (FLWNGEDSALL; listed as Homo sapiens) [compound 130]	″+++″ (≧50% = +++)
192 (KMLDGASFTL; listed as Homo sapiens) [compound 192]	″+++″ (≧50% = +++)
122 (FLLAEDDIYL; listed as Homo sapiens) [compound 122]	″+++″ (≧50% = +++)
99 (ALVSKGLATV; listed as Homo sapiens) [compound 99]	″++″ (≧20% = ++)
41 (SLMPHIPGL; listed as Homo sapiens) [compound 41]	″+++″ (≧50% = +++)
21 (VLDELDMEL; listed as Homo sapiens) [compound 21]	″++″ (≧20% = ++)
162 (YQQAQVPSV; listed as Homo sapiens) [compound 162]	″+++″ (≧50% = +++)
88 (FLLVGDLMAV; listed as Homo sapiens) [compound 88]	″+++″ (≧50% = +++)
1 (SLMEPPAVLLL; listed as Homo sapiens) [compound 1]	″+++″ (≧50% = +++)
190 (FLSSLTETI; listed as Homo sapiens) [compound 190]	″+++″ (≧50% = +++)
184 (YLMDINGKMWL; listed as Homo sapiens) [compound 184]	″+++″ (≧50% = +++)
183 (FGLDLVTEL; listed as Homo sapiens) [compound 183]	″+++″ (≧50% = +++)

Substance	Peptide exchange
31 (YLAPELFVNV; listed as Homo sapiens) [compound 31]	″++″ (≧20% = ++)
175 (YLFENISQL; listed as Homo sapiens) [compound 175]	″+++″ (≧50% = +++)
125 (VQIHQVAQV; listed as Homo sapiens) [compound 125]	″+++″ (≧50% = +++)
250 (ALSEEGLLVYL; listed as Homo sapiens) [compound 250]	″+++″ (≧50% = +++)
149 (NLLELFVQL; listed as Homo sapiens) [compound 149]	″+++″ (≧50% = +++)
57 (TLAELQPPVQL; listed as Homo sapiens) [compound 57]	″+++″ (≧50% = +++)
245 (SMIDDLLGV; listed as Homo sapiens) [compound 245]	″+++″ (≧50% = +++)
173 (LLDSASAGLYL; listed as Homo sapiens) [compound 173]	″+++″ (≧50% = +++)
132 (LLVEQPPLAGV; listed as Homo sapiens) [compound 132]	″+++″ (≧50% = +++)
104 (STMEQNFLL; listed as Homo sapiens) [compound 104]	″++++″ (≧75% = ++++)
159 (GLVGNPLPSV; listed as Homo sapiens) [compound 159]	″++++″ (≧75% = ++++)
243 (LLLNELPSV; listed as Homo sapiens) [compound 243]	″+++″ (≧50% = +++)
120 (ALLGIPLTLV; listed as Homo sapiens) [compound 120]	″+++″ (≧50% = +++)
101 (ILVGGGALATV; listed as Homo sapiens) [compound 101]	″+++″ (≧50% = +++)
216 (NLWEDPYYL; listed as Homo sapiens) [compound 216]	″+++″ (≧50% = +++)
84 (VTFGEKLLGV; listed as Homo sapiens) [compound 84]	″++″ (≧20% = ++)
103 (TLAEEVVAL; listed as Homo sapiens) [compound 103]	″+++″ (≧50% = +++)

Now from value to substance:

Peptide exchange	Substance
″++″ (≧20% = ++)	451 (LLLLDTVTMQV; listed as Homo sapiens) [compound 451]
″+++″ (≧50% = +++)	514 (ILVDWLVQV; listed as Homo sapiens) [compound 514]
″+++″ (≧50% = +++)	547 (TLDITPHTV; listed as Homo sapiens) [compound 547]
″+++″ (≧50% = +++)	503 (SLNHFTHSV; listed as Homo sapiens) [compound 503]
″++″ (≧20% = ++)	524 (ALIENLTHQI; listed as Homo sapiens) [compound 524]
″+++″ (≧50% = +++)	462 (KLAKQPETV; listed as Homo sapiens) [compound 462]
″+++″ (≧50% = +++)	542 (RVWDISTVSSV; listed as Homo sapiens) [compound 542]
″+++″ (≧50% = +++)	313 (VLFDDELLMV; listed as Homo sapiens) [compound 313]
″+++″ (≧50% = +++)	369 (GLFPEHLIDV; listed as Homo sapiens) [compound 369]
″+++″ (≧50% = +++)	263 (LLVSNLDFGV; listed as Homo sapiens) [compound 263]
″+++″ (≧50% = +++)	331 (KVDTVWVNV; listed as Homo sapiens) [compound 331]
″+++″ (≧50% = +++)	301 (FLVEDLVDSL; listed as Homo sapiens) [compound 301]
″++″ (≧20% = ++)	590 (SLIEKLWQT; listed as Homo sapiens) [compound 590]
″+++″ (≧50% = +++)	582 (TLCDVILMV; listed as Homo sapiens) [compound 582]
″+++″ (≧50% = +++)	492 (SLFDGFADGLGV; listed as Homo sapiens) [compound 492]
″+++″ (≧50% = +++)	328 (ALNDQVFEI; listed as Homo sapiens) [compound 328]
″+++″ (≧50% = +++)	332 (YLISELEAA; listed as Homo sapiens) [compound 332]
″+++″ (≧50% = +++)	352 (SLLELLHIYV; listed as Homo sapiens) [compound 352]
″+++″ (≧50% = +++)	464 (ALNDCIYSV; listed as Homo sapiens) [compound 464]

Peptide exchange	Substance
″+++″ (≧50% = +++)	594 (IMLKGDNITL; listed as Homo sapiens) [compound 594]
″+++″ (≧50% = +++)	271 (LVYPLELYPA; listed as Homo sapiens) [compound 271]
″++″ (≧20% = ++)	379 (IMEGTLTRV; listed as Homo sapiens) [compound 379]
″++″ (≧20% = ++)	405 (ALYDVFLEV; listed as Homo sapiens) [compound 405]
″++″ (≧20% = ++)	566 (VIADGGIQNV; listed as Homo sapiens) [compound 566]
″++″ (≧20% = ++)	402 (VLFSGALLGL; listed as Homo sapiens) [compound 402]
″+++″ (≧50% = +++)	476 (ALMERTGYSMV; listed as Homo sapiens) [compound 476]
″++″ (≧20% = ++)	318 (GLINTGVLSV; listed as Homo sapiens) [compound 318]
″+++″ (≧50% = +++)	430 (HLYSSIEHLTT; listed as Homo sapiens) [compound 430]
″++″ (≧20% = ++)	574 (YLLQEPPRTV; listed as Homo sapiens) [compound 574]
″+++″ (≧50% = +++)	567 (SLLPLDDIVRV; listed as Homo sapiens) [compound 567]
″++″ (≧20% = ++)	559 (VTVPPGPSL; listed as Homo sapiens) [compound 559]
″+++″ (≧50% = +++)	609 (ALWKQLLEL; listed as Homo sapiens) [compound 609]
″+++″ (≧50% = +++)	468 (YLRSVGDGETV; listed as Homo sapiens) [compound 468]
″+++″ (≧50% = +++)	564 (TVTNAVVTV; listed as Homo sapiens) [compound 564]
″+++″ (≧50% = +++)	544 (LLWDVPAPSL; listed as Homo sapiens) [compound 544]
″+++″ (≧50% = +++)	605 (KLYEAVPQL; listed as Homo sapiens) [compound 605]
″+++″ (≧50% = +++)	509 (FLFDTKPLIV; listed as Homo sapiens) [compound 509]
